From publication PMC6886308, “NADP(H) allosterically regulates the interaction between ferredoxin and ferredoxin‐NADP^+ reductase” (FEBS Open Bio, 2019)
Values belong to the molecule of their own block, whether it stands above or below them.

What was measured:
maize leaf FNR (L‐FNR) = target: T1, maize leaf FNR (L‐FNR) (Zea mays, UniProt Q9SLP6); assay: ITC of Fd I binding to FNR in presence of ligand; Fd-affinity chromatography; details: 0-500 μM NADP+ (ITC); 50 mM Tris/HCl, pH 7.5; 298 K; allosteric on Fd binding
T1 construct: gene L-FNRI; recombinant mature leaf FNR, FAD flavoprotein, C-terminal Tyr314
T1 sequence (Q9SLP6 42-355): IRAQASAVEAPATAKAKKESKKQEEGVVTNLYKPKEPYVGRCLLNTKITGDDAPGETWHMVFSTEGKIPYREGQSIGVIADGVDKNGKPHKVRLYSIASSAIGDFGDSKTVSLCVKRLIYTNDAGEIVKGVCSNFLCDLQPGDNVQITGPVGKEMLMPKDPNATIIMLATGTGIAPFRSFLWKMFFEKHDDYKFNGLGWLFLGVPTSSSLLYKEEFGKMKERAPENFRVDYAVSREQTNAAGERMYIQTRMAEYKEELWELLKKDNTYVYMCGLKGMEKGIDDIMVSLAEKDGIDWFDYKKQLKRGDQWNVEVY

[1] = target: maize leaf ferredoxin-NADP+ reductase R244Q (maize); assay: ITC; 500 uM Fd I in the syringe titrated into 50 uM L-FNR in the cell; 50 mM Tris/HCl pH 7.5, no NaCl, 298 K; one set of independent binding sites; 500 uM NADP+
[2] = target: maize leaf ferredoxin-NADP+ reductase, wild-type (maize); assay: as above
[3] = target: maize leaf ferredoxin-NADP+ reductase Y314S (maize); assay: as above
[4] = target: maize leaf ferredoxin-NADP+ reductase R235Q (maize); assay: as above
[5] = target: maize leaf ferredoxin-NADP+ reductase R244Q (maize); assay: ITC; 500 uM Fd I in the syringe titrated into 50 uM L-FNR in the cell; 50 mM Tris/HCl pH 7.5, no NaCl, 298 K; one set of independent binding sites; 50 uM NADP+
[6] = target: maize leaf ferredoxin-NADP+ reductase, wild-type (maize); assay: as above
[7] = target: maize leaf ferredoxin-NADP+ reductase Y314S (maize); assay: as above
[8] = target: maize leaf ferredoxin-NADP+ reductase R235Q (maize); assay: as above
[9] = target: maize leaf ferredoxin-NADP+ reductase R244Q (maize)
[10] = target: maize leaf ferredoxin-NADP+ reductase, wild-type (maize)
[11] = target: maize leaf ferredoxin-NADP+ reductase Y314S (maize)
[12] = target: maize leaf ferredoxin-NADP+ reductase R235Q (maize)
[13] = target: maize leaf ferredoxin-NADP+ reductase R244Q (maize); assay: ITC; 500 uM Fd I in the syringe titrated into 50 uM L-FNR in the cell; 50 mM Tris/HCl pH 7.5, no NaCl, 298 K; one set of independent binding sites; 0 uM NADP+
[14] = target: maize leaf ferredoxin-NADP+ reductase, wild-type (maize); assay: as above
[15] = target: maize leaf ferredoxin-NADP+ reductase Y314S (maize); assay: as above
[16] = target: maize leaf ferredoxin-NADP+ reductase R235Q (maize); assay: as above
[17] = substrate: NC(=O)C1=CN([C@@H]2O[C@H](COP(=O)(O)OP(=O)(O)OC[C@H]3O[C@@H](n4cnc5c(N)ncnc54)[C@H](OP(=O)(O)O)[C@@H]3O)[C@@H](O)[C@H]2O)C=CC1; assay: NADPH-dependent diaphorase assay; assay type: biochemical, Zea mays; details: DCPIP as electron acceptor
From the text: NADPH-dependent diaphorase assay on maize leaf FNR (L‐FNR)

Molecule: NC(=O)c1ccc[n+]([C@@H]2O[C@H](COP(=O)(O)OP(=O)(O)OC[C@H]3O[C@@H](n4cnc5c(N)ncnc54)[C@H](OP(=O)(O)O)[C@@H]3O)[C@@H](O)[C@H]2O)c1 [NADP^+]
ITC of Fd I binding to FNR in presence of ligand; Fd-affinity chromatography (maize leaf FNR (L‐FNR)): The resulting dissociation constant (K d) increased by addition of NADP^+ into the titration reaction

Kd [1]: 1100 nM
dH [1]: 5.8 kcal/mol
stoichiometry N [1]: 1
Kd [2]: 3.7 µM
dH [2]: 6.7 kcal/mol
stoichiometry N [2]: 0.8
Kd [3]: 2300 nM
dH [3]: 3.6 kcal/mol
stoichiometry N [3]: 0.7
Kd [4]: 1300 nM
dH [4]: 6.3 kcal/mol
stoichiometry N [4]: 0.9
Kd [5]: 790 nM
dH [5]: 7.4 kcal/mol
stoichiometry N [5]: 0.8
Kd [6]: 1600 nM
dH [6]: 8.8 kcal/mol
stoichiometry N [6]: 0.7
Kd [7]: 2600 nM
dH [7]: 4.3 kcal/mol
stoichiometry N [7]: 0.7
Kd [8]: 780 nM
dH [8]: 7.3 kcal/mol
stoichiometry N [8]: 0.7
Km for Fd in NADPH-dependent cyt c reduction, at 50 uM, 250 uM, 500 uM and 1 mM NADPH (0.75 to 6.9 uM) [9]: 6.9 µM
apparent Km for Fd in NADPH-dependent cyt c reduction, at 50 uM, 250 uM, 500 uM and 1 mM NADPH (3.5 to 44 uM) [10]: 44 µM
Km for Fd in NADPH-dependent cyt c reduction, at 50 uM, 250 uM and 500 uM NADPH (17, 13, 18 uM; not determined at 1 mM) [11]: 18 µM
Km for Fd in NADPH-dependent cyt c reduction, at 50 uM, 250 uM, 500 uM and 1 mM NADPH (0.30 to 5.0 uM) [12]: 5 µM
Kd [13]: 760 nM
dH [13]: 8.3 kcal/mol
stoichiometry N [13]: 0.7
Kd [14]: 1200 nM
dH [14]: 9.8 kcal/mol
stoichiometry N [14]: 0.7
Kd [15]: 2200 nM
dH [15]: 5.6 kcal/mol
stoichiometry N [15]: 0.7
Kd [16]: 870 nM
dH [16]: 8.3 kcal/mol
stoichiometry N [16]: 0.7
Molecule: maize leaf ferredoxin I (from UniProt P27787 53-150) (natural protein)

B1: maize leaf FNR (L‐FNR) (Zea mays) (protein)
chain: IRAQASAVEAPATAKAKKESKKQEEGVVTNLYKPKEPYVGRCLLNTKITGDDAPGETWHMVFSTEGKIPYREGQSIGVIADGVDKNGKPHKVRLYSIASSAIGDFGDSKTVSLCVKRLIYTNDAGEIVKGVCSNFLCDLQPGDNVQITGPVGKEMLMPKDPNATIIMLATGTGIAPFRSFLWKMFFEKHDDYKFNGLGWLFLGVPTSSSLLYKEEFGKMKERAPENFRVDYAVSREQTNAAGERMYIQTRMAEYKEELWELLKKDNTYVYMCGLKGMEKGIDDIMVSLAEKDGIDWFDYKKQLKRGDQWNVEVY
notes: recombinant mature leaf FNR, FAD flavoprotein, C-terminal Tyr314
Km [17]: 46 ± 3 µM
kcat [17]: 76 ± 14 s⁻¹

B2: maize leaf FNR (L‐FNR) (Zea mays; R276Q) (protein)
chain: IRAQASAVEAPATAKAKKESKKQEEGVVTNLYKPKEPYVGRCLLNTKITGDDAPGETWHMVFSTEGKIPYREGQSIGVIADGVDKNGKPHKVRLYSIASSAIGDFGDSKTVSLCVKRLIYTNDAGEIVKGVCSNFLCDLQPGDNVQITGPVGKEMLMPKDPNATIIMLATGTGIAPFRSFLWKMFFEKHDDYKFNGLGWLFLGVPTSSSLLYKEEFGKMKERAPENFRVDYAVSQEQTNAAGERMYIQTRMAEYKEELWELLKKDNTYVYMCGLKGMEKGIDDIMVSLAEKDGIDWFDYKKQLKRGDQWNVEVY
notes: as for B1
Km [17]: 500 ± 120 µM
kcat [17]: 60 ± 7 s⁻¹

B3: maize leaf FNR (L‐FNR) (Zea mays; R285Q) (protein)
chain: IRAQASAVEAPATAKAKKESKKQEEGVVTNLYKPKEPYVGRCLLNTKITGDDAPGETWHMVFSTEGKIPYREGQSIGVIADGVDKNGKPHKVRLYSIASSAIGDFGDSKTVSLCVKRLIYTNDAGEIVKGVCSNFLCDLQPGDNVQITGPVGKEMLMPKDPNATIIMLATGTGIAPFRSFLWKMFFEKHDDYKFNGLGWLFLGVPTSSSLLYKEEFGKMKERAPENFRVDYAVSREQTNAAGEQMYIQTRMAEYKEELWELLKKDNTYVYMCGLKGMEKGIDDIMVSLAEKDGIDWFDYKKQLKRGDQWNVEVY
notes: as for B1
Km [17]: 310 ± 60 µM
kcat [17]: 139 ± 13 s⁻¹

B4: maize leaf FNR (L‐FNR) (Zea mays; Y355S) (protein)
chain: IRAQASAVEAPATAKAKKESKKQEEGVVTNLYKPKEPYVGRCLLNTKITGDDAPGETWHMVFSTEGKIPYREGQSIGVIADGVDKNGKPHKVRLYSIASSAIGDFGDSKTVSLCVKRLIYTNDAGEIVKGVCSNFLCDLQPGDNVQITGPVGKEMLMPKDPNATIIMLATGTGIAPFRSFLWKMFFEKHDDYKFNGLGWLFLGVPTSSSLLYKEEFGKMKERAPENFRVDYAVSREQTNAAGERMYIQTRMAEYKEELWELLKKDNTYVYMCGLKGMEKGIDDIMVSLAEKDGIDWFDYKKQLKRGDQWNVEVS
notes: as for B1
Km [17]: 0.27 ± 0.08 µM
kcat [17]: 41 ± 6 s⁻¹
